The target of the assay is Cy3-labeled human histone nucleosome core particle reconstituted on the Widom 601 sequence (human) (UniProt P62807). Nature of the assay: single-molecule fluorescence imaging on optical tweezers.

In turn, “HaloTag-635-LIG3α (wild type, nuclear DNA ligase IIIα) (enzyme)” had a lifetime of 24 s.

The record behind these values is article PMC12748704.
